Reference: paper PMC11327461, “Exogenous serpin B1 restricts immune complex-mediated NET formation via inhibition of a chymotrypsin-like protease and enhances microbial phagocytosis” (The Journal of Biological Chemistry, 2024)

T1: recombinant human serpin B1, wild type (C344) (human, UniProt P30740 1-379)
T1 construct: serpin B1, human, recombinant, wild type (C344); non-glycosylated, 42 kDa by the discussion; also called rhsB1; sB1; source: yeast S. cerevisiae, purified
T1 sequence (looked up): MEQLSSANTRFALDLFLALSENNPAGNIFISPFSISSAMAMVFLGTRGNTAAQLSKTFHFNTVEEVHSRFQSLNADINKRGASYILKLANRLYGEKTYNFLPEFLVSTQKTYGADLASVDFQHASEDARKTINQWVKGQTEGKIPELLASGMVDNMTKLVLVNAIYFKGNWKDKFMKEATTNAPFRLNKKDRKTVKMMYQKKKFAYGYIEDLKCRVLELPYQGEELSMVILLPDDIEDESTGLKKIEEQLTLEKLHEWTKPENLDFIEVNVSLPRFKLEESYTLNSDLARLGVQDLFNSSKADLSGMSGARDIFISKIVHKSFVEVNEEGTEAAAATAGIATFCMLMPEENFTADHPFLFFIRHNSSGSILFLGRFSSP


Biological target: T1, recombinant human serpin B1, wild type …
Assay: formation of SDS- and heat-stable serpin-protease complexes, SDS-PAGE; 2 uL of hNE, hPR3 or hCG (23.4 uM each) mixed with each sB1 protein at 1:1 molar ratio in 20 uL PBS, pH 7.4, 15 min; stopped with protease inhibitor mix; reducing sample buffer, heated, SDS-PAGE
Conditions: both partners purified

binding result | Binder
binds | proteinase 3 (enzyme, human, UniProt P24158 28-248, looked up, hPR3, neutrophil serine protease; also called hPR3; PR3; source: bought: Athens Research and Technology) IVGGHEAQPHSRPYMASLQMRGNPGSHFCGGTLIHPSFVLTAAHCLRDIPQRLVNVVLGAHNVRTQEPTQQHFSVAQVFLNNYDAENKLNDVLLIQLSSPANLSASVATVQLPQQDQPVPHGTQCLAMGWGRVGAHDPPAQVLQELNVTVVTFFCRPHNICTFVPRRKAGICFGDSGGPLICDGIIQGIDSFVIWGCATRLFPDFFTRVALYVDWIRSTLR
binds | cathepsin G (enzyme, human, UniProt P08311 21-244, looked up, cathepsin G (hCG), neutrophil serine protease; also called hCG; Cat G; source: bought: Athens Research and Technology) IIGGRESRPHSRPYMAYLQIQSPAGQSRCGGFLVREDFVLTAAHCWGSNINVTLGAHNIQRRENTQQHITARRAIRHPQYNQRTIQNDIMLLQLSRRVRRNRNVNPVALPRAQEGLRPGTLCTVAGWGRVSMRRGTDTLREVQLRVQRDRQCLRIFGSYDPRRQICVGDRRERKAAFKGDSGGPLLCNNVAHGIVSYGKSSGVPPEVFTRVSSFLPWIRTTMRS
